The target in one assay is Modified Phage CTPR2. The experiment in a line: ITC; 166.6 uM Keap1 titrated into 16.66 uM CTPR or peptide; 50 mM Tris-HCl 150 mM NaCl 0.5 mM TCEP pH 8; 20 injections of 2 ul; one-site binding model. (ITC needs no label: the signal is the heat of the interaction.)
The target of assay [1] is T1, Keap1 Kelch domain construct (residues 321-624) (UniProt Q14145 321-624).
T1 construct: Keap1 Kelch domain, residues 321-624; pNIC28-BSA4 vector with a TEV cleavage site after the His-tag; gift of Alex Bullock (Structural Genomics Consortium, Oxford); No TEV cleavage is described in the purification; also called Kelch domain of Keap1; source: E. coli C41, purified (Ni-NTA, size exclusion chromatography)
The assay is described as above. The conditions noted are these: both partners purified.

In general, Kd refers to a measure of binding affinity in units of concentration. A high value points to weaker binding.

T1 sequence (Q14145 321-624): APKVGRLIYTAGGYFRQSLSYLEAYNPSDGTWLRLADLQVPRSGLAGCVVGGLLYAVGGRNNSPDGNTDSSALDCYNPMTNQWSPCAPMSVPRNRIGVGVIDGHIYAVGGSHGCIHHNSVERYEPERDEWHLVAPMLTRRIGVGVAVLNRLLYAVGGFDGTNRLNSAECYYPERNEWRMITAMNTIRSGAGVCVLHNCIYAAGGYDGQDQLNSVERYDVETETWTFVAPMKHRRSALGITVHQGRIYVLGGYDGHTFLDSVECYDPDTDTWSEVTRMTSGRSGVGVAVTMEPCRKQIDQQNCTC

Molecule “Keap1 Kelch domain construct (residues 321-624) (from UniProt Q14145 321-624) (domain or fragment)” displayed a Kd with Modified Phage CTPR2 of 22 nM.

B1: Ac-DPETGEL-NH2 (peptide)
peptide: Ac-DPETGEL-NH2
notes: peptide found by phage display (Hancock et al. 2012); also called phage display-derived peptide; phage display-derived free peptide; source: synthetic peptide (Cambridge Peptides Ltd)
With B1, the Kd in assay [1] was 341 nM.

B2: Ac-LDPETGELL-NH2 (peptide)
peptide: Ac-LDPETGELL-NH2
notes: phage display-derived peptide DPETGEL extended by two flanking leucines; also called modified phage display-derived peptide; Modified phage display-derived free peptide; source: synthetic peptide (Cambridge Peptides Ltd)
For the molecule B2, in assay [1], the Kd worked out at 4.65 nM.

The record behind these values is publication PMC8660007 (Protein Engineering, Design and Selection, 2021).
